# Changes are numbered by the printed parent chain.
# T1: Human GPA33 on GPA33+ colorectal cancer cell lines (Colo 205, LS 174T, SW 1222) (human, UniProt Q99795 22-319)
# T1 construct: Endogenous GPA33 on human colorectal cancer cell lines; also called surface human GPA33; GPA33+ tumor cell lines
# T1 sequence: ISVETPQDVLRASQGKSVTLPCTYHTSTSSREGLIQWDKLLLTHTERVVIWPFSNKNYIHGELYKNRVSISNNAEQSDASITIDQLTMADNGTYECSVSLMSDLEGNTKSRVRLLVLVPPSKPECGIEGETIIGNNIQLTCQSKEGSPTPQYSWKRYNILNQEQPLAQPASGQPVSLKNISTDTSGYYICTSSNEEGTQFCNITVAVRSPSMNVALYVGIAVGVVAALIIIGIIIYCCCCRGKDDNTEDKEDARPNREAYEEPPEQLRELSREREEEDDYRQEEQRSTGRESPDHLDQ
# T2: Human GPA33 (recombinant protein, Novoprotein) (human, UniProt Q99795 22-235)
# T2 construct: Bought recombinant protein immobilized on a CM5 chip; also called GPA33 antigen; tumor antigen GPA33
# T2 sequence: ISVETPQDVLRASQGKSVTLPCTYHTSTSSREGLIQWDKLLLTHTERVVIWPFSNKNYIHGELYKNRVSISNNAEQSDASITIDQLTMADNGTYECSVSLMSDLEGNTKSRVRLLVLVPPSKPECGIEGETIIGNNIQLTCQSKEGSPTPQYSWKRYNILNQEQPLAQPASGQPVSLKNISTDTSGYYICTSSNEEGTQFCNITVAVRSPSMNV
# B1: TC234 (bispecific antibody)
# chain: EVQLVESGGGLVDPGGSLRLSCAASGFAFSTYDMSWVRQAPGKGLEWVSTISSGGSYTYYADSVKGRFTISRDNAKNSLYLQMNSLRAEDTAVYYCAPTTVVPFAYWGQGTLVTVSAGGGGSGGGGSGGGGSGGGGSGGGGSGGGGSDIQMTQSPSSLSASVGDRVTITCKASQNVRTVVAWYQQKPGKAPKTLIYLASNRHTGVPSRFSGSGSGTEFTLTISNLQPEDFATYYCLQHWSYPLTFGSGTKLEVKRGGGGSGGGGSGGGGSGGGGSHVQLVESGGGLVQPGGSLRLSCAASGFSLTDYGVHWVRQAPGKGLEWLGVIWSGGGTAYNTALISRFTISRDNSKNTLYLQMNSLRAEDTAVYYCARRGSYPYNYFDAWGCGTLVTVSSGGGGSGGGGSGGGGSGGGGSGGGGSGGGGSQAVVTQEPSLTVSPGGTVTLTCGSSTGAVTASNYANWVQQKPGQCPRGLIGGHNNRPPGVPARFSGSLLGGKAALTLLGAQPEDEAEYYCALWYSDHWVIGGGTKLTVLGTPLGDTTHTSGKPLDGEYFTLQIRGRERFEMFRELNEALELKDAQAGKEPGGSGGAPHHHHHH
# notes: pI variant of TC170 with a single mutation; Carries the p53 SADA (tetramerization) domain; also called GPA33xDOTA SADA; pI variant of TC170
# B2: TC235 (bispecific antibody)
# chain: B1 chain with K76A, K189Q
# notes: pI variant of TC170 with a triple mutation in the GPA33 scFv; Carries the p53 SADA (tetramerization) domain; also called GPA33xDOTA SADA; pI variant of TC170
# B3: TC213 (bispecific antibody)
# chain: B1 chain with K76A
# notes: pI variant of TC170 with a double mutation in the GPA33 scFv; Carries the p53 SADA (tetramerization) domain; also called GPA33xDOTA SADA; pI variant of TC170
# Molecular target: T1, Human GPA33 on GPA33+ colorectal cancer …
# Assay: FACS titration on Colo205 cells, geometric mean MFI
row,Binder,EC50 [nM]
1,B1,0.71
2,B2,0.53
3,B3,0.55

# Molecular target: T2, Human GPA33 (recombinant protein, …)
# Assay: SPR (Biacore), human GPA33 immobilised on the chip; KD relative to that of TC170
# Method in brief: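 On a Biacore system, antibodies at five concentrations (2-fold serial dilutions, highest 20 nM) were passed over recombinant human GPA33 (Novoprotein) immobilised on a CM5 sensor chip. Rate constants and the dissociation constant (KD) came from kinetic fitting of the surface plasmon resonance sensorgrams. Each KD is expressed relative to the KD of a reference molecule, as a ratio.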
row,Binder,"Fold change of KD (relative to TC170, lower is better)"
1,B1,0.8
2,B2,1.5
3,B3,1.4

# Molecular target: T1, Human GPA33 on GPA33+ colorectal cancer …
# Assay: FACS titration on SW1222 cells, geometric mean MFI [Cont.]
row,Binder,EC50 [nM]
1,B1,2.05
2,B2,1.03
3,B3,1.05

# Molecular target: T1, Human GPA33 on GPA33+ colorectal cancer …
# Assay: FACS binding to LS174T cells (GPA33+)
Binder,EC50 [nM],"fold change of binding EC50 (relative to TC170, lower is better)"
B1,0.21,0.68
B2,0.22,0.71
B3,0.23,0.74

# Molecular target: T2, Human GPA33 (recombinant protein, …)
# Assay: SPR (Biacore), human GPA33 immobilized on CM5 chip, two-state fit, kd1
# Method in brief: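 The off-rate (kd1) came from surface plasmon resonance, with sensorgrams fitted to a two-state binding model to derive the kinetic parameters. Recombinant human GPA33 from Novoprotein was immobilised on a CM5 chip in a Biacore T100. Antibodies were flowed over at five concentrations, made as 2-fold serial dilutions starting at 20 nM. The parent IgG1 was run at 25° C, and the bispecific formats at both 25° C and 37° C.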
row,Binder,koff [s⁻¹]
1,B1,0.000966
2,B2,0.000981
3,B3,0.000857

# Molecular target: T1, Human GPA33 on GPA33+ colorectal cancer …
# Assay: FACS titration on LS174T cells, geometric mean MFI [Cont.]
row,Binder,EC50 [nM]
1,B1,0.21
2,B2,0.22
3,B3,0.23

# Molecular target: T1, Human GPA33 on GPA33+ colorectal cancer …
# Assay: FACS binding to SW1222 cells (GPA33+)
Binder,EC50 [nM],"fold change of binding EC50 (relative to TC170, lower is better)"
B1,2.05,1.24
B2,1.03,0.62
B3,1.05,0.64

# Molecular target: T2, Human GPA33 (recombinant protein, …)
# Assay: SPR (Biacore), human GPA33 immobilized on CM5 chip, two-state fit
# Method: (§1) SPR analysis. Human GPA33 (Novoprotein, Summit, NJ) was immobilized on CM5 chips. Five concentrations of 2-fold serially diluted huA33 IgG1 or huA33-BsAbs (starting at 20 nM) were flowed over the chip using a Biacore™ T100 system (GE Healthcare, Chicago, IL). Binding kinetics of huA33 were measured at 25° C. and binding kinetics of huA33-BsAbs were measured at both 25° C. and 37° C. The sensorgrams were fitted with two state binding model for both to derive kinetic parameters.
Binder,Kd [nM],ka2 [s⁻¹],kd2 [s⁻¹]
B1,0.0122,0.00566,0.000353
B2,0.0242,0.00561,0.00051
B3,0.0218,0.00636,0.000611

# Molecular target: T2, Human GPA33 (recombinant protein, …)
# Assay: SPR (Biacore), human GPA33 immobilized on CM5 chip, two-state fit, ka1
# Method: as §1
row,Binder,kon [M⁻¹ s⁻¹]
1,B1,4.65e+06
2,B2,3.38e+06
3,B3,3.44e+06

# Molecular target: T1, Human GPA33 on GPA33+ colorectal cancer …
# Assay: FACS binding to Colo205 cells (GPA33+)
Binder,EC50 [nM],"fold change of binding EC50 (relative to TC170, lower is better)"
B1,0.71,0.96
B2,0.53,0.72
B3,0.55,0.74

# Source: patent publication US20240026037A1 (Memorial Sloan Kettering, published 2024)
